According to US20150166670A1 (Hoffmann-La Roche, published 2015):
Blank lines part the entries; values can stand above or below the binder they belong to.

Tests used:
human HER1 ectodomain = molecular target: T1, human HER1 ectodomain (human, UniProt P00533 25-645); assay: SPR Biacore T100, 37 C, antibody captured via anti-human IgG-Fc, ECD as analyte, 1:1 Langmuir fit
T1 construct: extracellular domain; also called hu HER1 ECD; Her1 ECD
Protocol: (§1) All experiments were performed on a Biacore T100 (GE Healthcare). Experimental results were analyzed using the T100 control and evaluation software package (GE Healthcare, v2.03). The assay format was a ‘multi cycle kinetic’ measurement on a CM5-chip. […] Using a concentration series, seven increasing concentrations of each of the antigens (human Her1, Her2, and Her3 ectodomain) were injected separately. […] Running buffer was PBS-T. Dilution buffer was PBST containing BSA (c=1 mg/mL). Capturing of MAbs<HerX> on flow cell 2, 3, and 4 with a concentration of approx. c=1 nM, flow 50/min, time 72 sec. […] Dissociation time: 1800 sec. Each concentration was analyzed as duplicate. Final regeneration was performed after each cycle using 3 M MgCl2 (recommended by vendor) with a contact time of 120 sec and a flow rate of 50 μl/min. Analysis of simultaneous binding: Her2/Her3, Her3/Her2 or Her1/Her2 were injected consecutively using the dual inject mode with a contact time of 180 sec. each. The antigen concentration was chosen for each antigen at the saturation as observed in the kinetics experiment. […] A temperature of 25° C. was chosen to minimize dissociation. Triplicates for each combination were determined. Flow rate 30 mL/min, dual inject with two injects, each 180 sec.

human HER3 ectodomain = molecular target: T2, human HER3 ectodomain (human, UniProt P21860 20-643); assay: as above
T2 construct: extracellular domain; also called hu HER3 ECD; Her3 ECD
T2 sequence (P21860 20-643): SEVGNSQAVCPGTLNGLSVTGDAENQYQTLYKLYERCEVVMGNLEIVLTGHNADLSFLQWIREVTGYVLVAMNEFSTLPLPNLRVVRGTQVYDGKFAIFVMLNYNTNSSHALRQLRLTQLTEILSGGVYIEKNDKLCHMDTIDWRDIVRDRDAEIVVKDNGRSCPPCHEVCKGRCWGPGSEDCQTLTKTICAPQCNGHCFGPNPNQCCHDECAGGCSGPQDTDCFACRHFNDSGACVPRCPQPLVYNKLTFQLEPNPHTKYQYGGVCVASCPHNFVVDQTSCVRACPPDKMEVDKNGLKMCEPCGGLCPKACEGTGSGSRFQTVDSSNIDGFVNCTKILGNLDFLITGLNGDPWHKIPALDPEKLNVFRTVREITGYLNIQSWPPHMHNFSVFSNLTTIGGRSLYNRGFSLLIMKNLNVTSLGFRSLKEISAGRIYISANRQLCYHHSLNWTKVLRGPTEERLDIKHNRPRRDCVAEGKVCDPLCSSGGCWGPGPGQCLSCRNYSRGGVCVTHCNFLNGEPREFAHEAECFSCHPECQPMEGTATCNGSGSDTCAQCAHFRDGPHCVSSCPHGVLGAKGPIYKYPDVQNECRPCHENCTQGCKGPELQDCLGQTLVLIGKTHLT
Protocol: as §1

human HER2 ectodomain = molecular target: T3, human HER2 ectodomain (human, UniProt P04626 23-652); assay: SPR (Biacore T100), antibody captured via anti-human IgG-Fc on a CM5 chip, dual inject Her2 then Her3 ectodomain, 180 s each, 25 °C
T3 construct: extracellular domain; also called hu HER2 ECD; Her2 ECD
Protocol: as §1

Kd (human HER1 ectodomain): 14 nM | koff (human HER1 ectodomain): 0.021 s⁻¹ | kon (human HER1 ectodomain): 1.4e+06 M⁻¹ s⁻¹ | t ½ (human HER1 ectodomain): 0.6 min | Kd (human HER3 ectodomain): 1.9 nM | koff (human HER3 ectodomain): 0.0037 s⁻¹ | kon (human HER3 ectodomain): 2e+06 M⁻¹ s⁻¹ | t ½ (human HER3 ectodomain): 3.1 min | binding result (human HER2 ectodomain): no binding
B1: parental DAF (Her1-Her3 dual affinity antibody) (antibody)
heavy 1: not shown
heavy 2: not shown
light: DIQMTQSPSSLSASVGDRVTITCRASQNIATDVAWYQQKPGKAPKLLIYSASFLYSGVPSRFSGSGSGTDFTLTISSLQPEDFATYYCQQSEPEPYTFGQGTKVEIKRTVAAPSVFIFPPSDEQLKSGTASVVCLLNNFYPREAKVQWKVDNALQSGNSQESVTEQDSKDSTYSLSSTLTLSKADYEKHKVYACEVTHQGLSSPVTKSFNRGEC
notes: also called DAF antibody; Bispecific parent Her1/Her3 (with KiH)

Kd (human HER1 ectodomain): 17 nM | koff (human HER1 ectodomain): 0.02 s⁻¹ | kon (human HER1 ectodomain): 1.2e+06 M⁻¹ s⁻¹ | t ½ (human HER1 ectodomain): 0.6 min | Kd (human HER3 ectodomain): 1.8 nM | koff (human HER3 ectodomain): 0.0044 s⁻¹ | kon (human HER3 ectodomain): 2.4e+06 M⁻¹ s⁻¹ | t ½ (human HER3 ectodomain): 2.6 min
B2: trispecific antibody KiH Her1-Her3 DAF-xHer2 (antibody, human IgG1, kappa)
heavy 1: not shown
heavy 2: not shown
light 1: B1 light
light 2: DIQMTQSPSSLSASVGDRVTITCKASQDVSIGVAWYQQKPGKAPKLLIYSASYRYTGVPSRFSGSGSGTDFTLTISSLQPEDFATYYCQQYYIYPYTFGQGTKVEIKSSASTKGPSVFPLAPSSKSTSGGTAALGCLVKDYFPEPVTVSWNSGALTSGVHTFPAVLQSSGLYSLSSVVTVPSSSLGTQTYICNVNHKPSNTKVDKKVEPKSC
notes: also called Trispecific Her1/Her3 xHer2
